Among the data in paper PMC10679481 are percent of GFP spots colocalized with the anti-HA (Alexa 561) spots and percent of GFP and mCherry signals colocalized values, retold here.

The target in assay [1] is PKA-C-eGFP (UniProt P17612). The experiment in a line: co-IP; nanobead-based sc-SiMPull: single HEK293T cells coexpressing PKA-C-eGFP and PKA-R-HA lysed in situ in microwells, anti-GFP-coated nanobeads, PKA-R-HA visualised by immunostaining with anti-HA and fluorophore-conjugated 2nd antibody.
For assay [2], the target named is PKA-C-eGFP (UniProt P17612). Put plainly: co-IP; nanobead-based sc-SiMPull: single HEK293T cells trapped in microwells and lysed in situ, anti-GFP-coated magnetic nanobeads capture PKA-C-eGFP, mCherry seen directly by confocal microscopy; control conditions (no cAMP); room temperature.

Consider “PKA-R-HA (from UniProt P10644 1-381) (natural protein)”, for which the percent of GFP spots colocalized with the anti-HA (Alexa 561) spots with PKA-C-eGFP [1] came to 60%.
In the case of “PKA-R-mCherry (from UniProt P10644 1-381) (natural protein)”, the percent of GFP and mCherry signals colocalized in the assay with PKA-C-eGFP [2] was 70%.
